Consider 1 sequence from patent publication US20240139239A1.

For this test, the target named is OVA peptide 323-339 presented on MHC-II molecules (Gallus gallus (Chicken)) (UniProt P01012).

In turn, “T cell receptor of OT-II CD4+ T cells, specific for ovalbumin (OVA) peptide presented in the context of MHC-II molecules (TCR)” registered a proliferation (CTVlow) of OT-II CD4+ T cells after 5 days of co-culture with peptide-loaded PIP-induced cells of 10.7%.
